Results reported in patent US20200323973A1 (INSTITUTE FOR SYSTEMS BIOLOGY, published 2020).
Bridge positions count the residues as written; N and C are the ends. Ends that are not written are not given here. * marks the point of attachment. Biotin = O=C1N[C@H]2[C@H](CS[C@H]2CCCCC(=O)*)N1

Columns and labels:
[1] = biological target: recombinant full-length MrkA protein with an N-terminal 6xHis-SUMO-tag (MyBiosource, MBS1248970) (Klebsiella pneumoniae) (UniProt P12267); assay: sandwich ELISA 2, 25 nM MrkA; PCC immobilised
[2] = biological target: recombinant full-length MrkA protein with an N-terminal 6xHis-SUMO-tag (MyBiosource, MBS1248970) (Klebsiella pneumoniae) (UniProt P12267); assay: sandwich ELISA 1, [MrkA] N/A; reference compound, ratio to itself
[3] = biological target: recombinant full-length MrkA protein with an N-terminal 6xHis-SUMO-tag (MyBiosource, MBS1248970) (Klebsiella pneumoniae) (UniProt P12267); assay: sandwich ELISA 2, 25 nM MrkA; reference compound, ratio to itself
[4] = biological target: recombinant full-length MrkA protein with an N-terminal 6xHis-SUMO-tag (MyBiosource, MBS1248970) (Klebsiella pneumoniae) (UniProt P12267); assay: sandwich ELISA 3, 50 nM MrkA; reference compound, ratio to itself
[5] = biological target: recombinant full-length MrkA protein with an N-terminal 6xHis-SUMO-tag (MyBiosource, MBS1248970) (Klebsiella pneumoniae) (UniProt P12267); assay: sandwich ELISA 5, 25 nM MrkA; reference compound, ratio to itself
[6] = biological target: recombinant full-length MrkA protein with an N-terminal 6xHis-SUMO-tag (MyBiosource, MBS1248970) (Klebsiella pneumoniae) (UniProt P12267); assay: sandwich ELISA 6, 25 nM MrkA; reference compound, ratio to itself
[7] = biological target: recombinant full-length MrkA protein with an N-terminal 6xHis-SUMO-tag (MyBiosource, MBS1248970) (Klebsiella pneumoniae) (UniProt P12267); assay: sandwich ELISA 4, 100 nM MrkA; reference compound, ratio to itself
[8] = biological target: recombinant full-length MrkA protein with an N-terminal 6xHis-SUMO-tag (MyBiosource, MBS1248970) (Klebsiella pneumoniae) (UniProt P12267); assay: ELISA with the PCC immobilised, full-length recombinant MrkA (FIG. 3A)
[9] = biological target: recombinant full-length MrkA protein with an N-terminal 6xHis-SUMO-tag (MyBiosource, MBS1248970) (Klebsiella pneumoniae) (UniProt P12267); assay: sandwich ELISA: biotinylated PCC on NeutrAvidin plate, His-SUMO-MrkA titrated, anti-His detection (FIG. 3A)
[10] = biological target: recombinant full-length MrkA protein with an N-terminal 6xHis-SUMO-tag (MyBiosource, MBS1248970) (Klebsiella pneumoniae) (UniProt P12267); assay: sandwich ELISA 6, 25 nM MrkA; PCC immobilised
[11] = biological target: recombinant full-length MrkA protein with an N-terminal 6xHis-SUMO-tag (MyBiosource, MBS1248970) (Klebsiella pneumoniae) (UniProt P12267); assay: sandwich ELISA 4, 100 nM MrkA; PCC immobilised
[12] = biological target: recombinant full-length MrkA protein with an N-terminal 6xHis-SUMO-tag (MyBiosource, MBS1248970) (Klebsiella pneumoniae) (UniProt P12267); assay: ELISA with the PCC immobilised, full-length recombinant MrkA
[13] = biological target: recombinant full-length MrkA protein with an N-terminal 6xHis-SUMO-tag (MyBiosource, MBS1248970) (Klebsiella pneumoniae) (UniProt P12267); assay: sandwich ELISA 3, 50 nM MrkA; PCC immobilised
[14] = biological target: T1, MrkA on Klebsiella pneumoniae cells (assembled into type 3 fimbriae) (Klebsiella pneumoniae, UniProt P12267 23-202); assay: flow cytometry on K. pneumoniae BAA 2146, Alexafluor 488 anti-DNP detection
T1 construct: whole, on cells; One molecule is used for all three strains; The strain is named under assay; MrkA oligomerises in the fimbriae and the number of copies is not fixed; also called MrkA-expressing K. pneumoniae cells; wild type KPPR1 (ATCC 43816)
T1 sequence: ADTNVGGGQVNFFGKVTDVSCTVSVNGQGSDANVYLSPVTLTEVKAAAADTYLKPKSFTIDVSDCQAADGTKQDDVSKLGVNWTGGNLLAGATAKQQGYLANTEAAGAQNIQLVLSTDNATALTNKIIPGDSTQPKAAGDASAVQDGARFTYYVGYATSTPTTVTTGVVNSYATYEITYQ

SynEp 1 (SEQ ID NO:38) = biological target: T2, SynEp 1 (SEQ ID NO:38) (Klebsiella pneumoniae, also: one residue replaced by azidolysine, position not given here); assay: sandwich ELISA: biotinylated SynEp immobilised, cy(LLFFF)-DNP titrated, anti-DNP detection; background biotin-PEG6 subtracted
T2 peptide: {Biotin-peg5}-FFGKVTDVSCTVSV

[15] = biological target: T1, MrkA on Klebsiella pneumoniae cells …; assay: whole-cell ELISA on two strains of MrkA-expressing K. pneumoniae (FIG. 5C); biotinylated PCC, SAv-HRP
[16] = biological target: T1, MrkA on Klebsiella pneumoniae cells …; assay: whole-cell ELISA, biotinylated PCC and SAv-HRP; KPPR1 (FIG. 5B); also two MrkA-expressing strains at 5 µM (FIG. 5C)
[17] = biological target: T1, MrkA on Klebsiella pneumoniae cells …; assay: whole-cell ELISA on wild type KPPR1 (ATCC 43816) grown in G-CAA; biotinylated PCC, SAv-HRP

## cy(LLAFF) (SEQ ID NO:9) (peptide)
[1]
  Relative affinity (ratio of ELISA signal to cy(LLFFF)): 0.59

## biotinylated cy(LLFFF) (SEQ ID NO:5) (peptide)
[2]
  Relative affinity (ratio of ELISA signal to cy(LLFFF)): 1
[3]
  Relative affinity (ratio of ELISA signal to cy(LLFFF)): 1
[4]
  Relative affinity (ratio of ELISA signal to cy(LLFFF)): 1
[5]
  Relative affinity (ratio of ELISA signal to cy(LLFFF)): 1
[6]
  Relative affinity (ratio of ELISA signal to cy(LLFFF)): 1
[7]
  Relative affinity (ratio of ELISA signal to cy(LLFFF)): 1
[8]
  EC50: 230 nM
[9]
  EC50: 50 nM

## cy(ALFFF) (SEQ ID NO:7) (peptide)
[1]
  Relative affinity (ratio of ELISA signal to cy(LLFFF)): 0.53

## cy(HLFFF) (SEQ ID NO:13) (peptide)
[10]
  Relative affinity (ratio of ELISA signal to cy(LLFFF)): 0.81

## cy(TTFFF) (SEQ ID NO:35) (peptide)
[11]
  Relative affinity (ratio of ELISA signal to cy(LLFFF)): 0.04
[12]
  affinity (likely): 1 µM

## cy(GVHRL) (SEQ ID NO:57) (peptide)
[12]
  affinity (likely): 1 µM

## cy(YRHLG) (SEQ ID NO:56) (peptide)
[12]
  affinity (likely): 1 µM

## cy(AAFFF) (SEQ ID NO:14) (peptide)
[13]
  Relative affinity (ratio of ELISA signal to cy(LLFFF)): 0.15

## cy(LAFFF) (SEQ ID NO:8) (peptide)
[1]
  Relative affinity (ratio of ELISA signal to cy(LLFFF)): 0.26

## biotinylated cy(LLFFA) (SEQ ID NO:11) (peptide)
[1]
  Relative affinity (ratio of ELISA signal to cy(LLFFF)): 0.04

## cy(DLFFF) (SEQ ID NO:12) (peptide)
[10]
  Relative affinity (ratio of ELISA signal to cy(LLFFF)): 0.21

## cy(LLFAF) (SEQ ID NO:10) (peptide)
[1]
  Relative affinity (ratio of ELISA signal to cy(LLFFF)): 0.1

B1: cy(LLFFF)-DNP (SEQ ID NO:5) (peptide)
peptide: LLFFF-azidolysine
modifications: triazole N-C; not fully specified (N-terminus); printed as cy(LLFFF)-DNP; also: linker peg5 or peg5-peg5 by assay
notes: also called DNP-conjugated cy(LLFFF); lead AR-PCC
[14]
  binding result: binds
SynEp 1 (SEQ ID NO:38)
  binding result: no binding (tested: 500 nM)

B2: biotinylated dummy ligand cy(HNGPT) (SEQ ID NO:18) (peptide)
peptide: HNGPT
modifications: macrocycle: propargylglycine before and azidolysine after the printed residues, joined by a triazole (cy); N-terminal biotin-peg5 tag
[15]
  binding result: no binding

B3: biotinylated cy(LLFFF) (SEQ ID NO:5) (peptide)
peptide: LLFFF-azidolysine
modifications: triazole N-C; not fully specified (N-terminus); also: biotin-PEG tag by assay: Bio-Peg10-peg10, Bio-peg10 or Bio-peg5
notes: The biotin-PEG tags differ between assays; They are non-peptide, so one molecule is used and the tag is named under assay; also called cy(X-LLFFF-Z)
[16]
  binding result: binds

B4: biotinylated cy(LLFFA) (SEQ ID NO:11) (peptide)
peptide: LLFFA-propargylglycine
modifications: triazole N-C; not fully specified (N-terminus); printed as cy(Z-LLFFA-X); also: biotin-PEG tag: Bio-peg10 or biotin-peg5 (whole-cell ELISA)
notes: also called Compound Number 6; cy(Z-LLFFA-X)
[17]
  binding result: no binding (tested: 5 µM down to 5 nM)
